Results from the nanobody polyreactivity screen of Harvey et al. (2022).

Test: yeast display, Sf9 membrane polyspecificity reagent, FACS + sequencing; frameworks hold sequencing errors
Procedure, shortened: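 After 36–48 hours of galactose induction, yeast (Saccharomyces cerevisiae BJ5465) displaying a synthetic nanobody library were stained at 4 °C for 1 hour with 10% biotinylated, detergent-solubilized Sf9 membrane reagent. Streptavidin microbeads enriched the stained cells before FACS sorting into low and high (top ~1%) gates on anti-HA and streptavidin fluorescence. Each clone's polyreactivity label reflects its gate of origin.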

Sequence	polyreactivity (PSR sort gate)
QVQLVESGGGLVQAGGSLRLSCAASGITFANYAVGWYRQAPGKERELVAAISTSGGSTYYADSVKGRFTISRDNAKNTVDLQMNSLKPEDTAVYYCAARPYPWANFGYWGQGTQVTVSS	high polyreactivity
QVQLVESGGGLVQAGGSLRLSCAASGITFAPYAMGWYRQAPGKEREFVAGISWSGTTTYYADSVKGRFTISRDNAKNTVYLQMNSLKPEDTAVYYCATDYFNYGYFDFRWYYYWGQGTQVTVSS	high polyreactivity
QVQLVESGGGLVQAGGSLRLSCAASGITFARYAMGLYIQAPGKERELVAAISKRGGRKYYADSVKGRFTISRDNAKNTVYLQMNSLKPEDTAVYYCATDYYVSTDYNLWGQGTQVTVSS	high polyreactivity
QVQLVESGGGLVQAGGSLRLSCAASGITFAYYAKAWYRQAPGKERELVAAINWSGGSTYYADSVKGRFTISRDNAKNTVYLQMNSLKPEDTAVYYCNAVPRRGYSRRDYWGQGTQVTVSS	high polyreactivity
QVQLVESGGGLVQAGGSLRLSCAASGITFCDNTMGWYRQAPGKERELVAAITYSSTSTYYADSVKGRFTISRDNAKNTVYLQMNSLKTEDTAVYYCAAEGPGDVVSTDYDFWGQGTQVTVSS	low polyreactivity
QVQLVESGGGLVQAGGSLRLSCAASGITFCSYTMGWYRQAPGKERELVAVISSGGSTNYADSVKGRFTISRDNAKNTVYLQMNSLKPEDTAVYYCAADFRWWYTGFDYWGQGTQVTVSS	high polyreactivity
QVQLVESGGGLVQAGGSLRLSCAASGITFCYYVMGWYRQAPGKERELVAAISSGSSTYYADSVKGRFTISRDNAKNTVYLQMNSLKPEDTAVYYCAAESVYWLEFRYYYWGQGTQVTVSS	low polyreactivity
QVQLVESGGGLVQAGGSLRLSCAASGITFDDNAMGWYRQAPGKERELVATISDGGRTYYADSVKGRFTISRDNAKNTVYLQMNSLKPEDTAVYYCAAGYPYYHVYGYGYWGQGTQVTVSS	low polyreactivity
QVQLVESGGGLVQAGGSLRLSCAASGITFDDYVMGWYRQAPGKERELVAAITRSGGRTYYADSVKGRFTISRDNAKNTVDLQMNSLKPEVTAVYYCAARHRDNRFDYWGQGTQVTVSS	high polyreactivity
QVQLVESGGGLVQAGGSLRLSCAASGITFDGNAMGWYRQAPGKERELVAGISGSGGGTYYADSVKGRFTISRDNAKNTVYLQMNSLKPEDTAVYYCAADTSTSHAYDYWGQGTQVTVSS	low polyreactivity
QVQLVESGGGLVQAGGSLRLSCAASGITFDHYAMGWYRQAPGKERELVAAITSGGNTNYADSVKGRFTISRDNAKNTVYLQMNILKPVDTAVYYCNARYDVWYYYWGQGTQVTVSS	high polyreactivity
QVQLVESGGGLVQAGGSLRLSCAASGITFDLYAMGWYRQAPGKERELVAAISISSTSTYYADSVKGRFTISRDNAKNTVYLQMNSLKPEDTAVYYCNAVPSSKTFWFDYWGQGTQVTVSS	low polyreactivity
QVQLVESGGGLVQAGGSLRLSCAASGITFDRYLMGWYRQAPGKERELDAAISWTGDSTYYADSVKGRFTISRDNAKNTVYLQMNSLKPEDPAVYYCAAEDLWYGYNYWGQGTQVTVSS	high polyreactivity
QVQLVESGGGLVQAGGSLRLSCAASGITFDSNAMGWYRQAPGNERELVAAISSTGSTDYADSVKGRFTITRDNAKNTVYLQMNSLKPEDTAVYYCATGGRGGRRYEYWGQGTQVTVSS	low polyreactivity
QVQLVESGGGLVQAGGSLRLSCAASGITFDSNTKGWYRPAPGKEREFVATISYSGGSTYYADSVKGRFTISRDNAKNTVYFQMNSLKPEDTAVYYCHADYYGGPTMQYGYLWYDYWGEGTQVTVSS	low polyreactivity
QVQLVESGGGLVQAGGSLRLSCAASGITFDSYAMGWYRQAPGKEREFVAAISRSGGSTYYADSVKGRFTISRDNAKNTVYLQMNSLKPEDTAVYYCAVSLGRGSSWKLGYWGQGTQVTVSS	high polyreactivity

Sequence	polyreactivity (PSR sort gate)
QVQLVESGGGLVQAGGSLRLSCAASGITFDSYAMGWYRQAPGKERELVAAISYSGGSTYYADSVKGRFTISRDNAKNTVYLQMNSLKPEDTAVYYCAAASDDDYDYWGQGTQVTVSS	low polyreactivity
QVQLVESGGGLVQAGGSLRLSCAASGITFEGYAMGGYRQAPGKERELVAAIRSSGTSTYYADSVKGRFTISRDNAKNTVYLQMNSLKPEDTAVYYCNRARSSSLYDYWGQGTQVTVSS	low polyreactivity
QVQLVESGGGLVQAGGSLRLSCAASGITFEGYAMGRYRQAPGKERELVAAITGSGSTTYYADSVKGRFTISRDNAKNTVYLQMNSLKPEDTAVYYCAADVSYKLYWGQGTQVTVSS	low polyreactivity
QVQLVESGGGLVQAGGSLRLSCAASGITFEGYAMGWYRQAPGKERELVAAITGSGSTTYYADSVKGRFTISRDNAKNTVYLQMNSLKPEDTAVYYCAADVSYKLYWGQGTQVTVSS	low polyreactivity
QVQLVESGGGLVQAGGSLRLSCAASGITFEGYAMGWYRQAPGKERELVAAITWSGGRTYYADSVKGRFTISRDNAKNTVYLQMNSLKPEDTAVYYCAADVSDWSNQYFDSYLRMDYWGQGTQVTVSS	low polyreactivity
QVQLVESGGGLVQAGGSLRLSCAASGITFEIYVMGWYRQAPGKERELVAAITSDDTTYADSVKGRFTISRDNAKNTVYLQMNSLKPEDTAVYYCAADYYGVGVGPYSPADEYDYWGQGTQVTVSS	low polyreactivity
QVQLVESGGGLVQAGGSLRLSCAASGITFEKYAMGWYRQAPGKERELVAAITSSGGSTYYADSVKGRFTISRDNAKNTVYLQMNSLKPEDTAVYYCKARYYYADRTSGGYYYWGQGTQVTVSS	high polyreactivity
QVQLVESGGGLVQAGGSLRLSCAASGITFERYAIGWYRQAPGKERELVAAITSSGGSTYYADSVKGRFTISRDNAKNTVYLQMNSLKPEDTAVYYCAARNAYTPRHDYWGQGTQVTVSS	high polyreactivity
QVQLVESGGGLVQAGGSLRLSCAASGITFERYTMGWYRQAPGKERELVAAIRGSGGTYYADSVKGRFTISRDNAKNTVYLQMNSLKPEDTAVYYCAARYSYRYGVVYGTLHGYWGQGTQVTVSS	high polyreactivity
QVQLVESGGGLVQAGGSLRLSCAASGITFETYAMGWYRPAPGTVRELVAAISSGTDDTYYADSVKGRFTISRDNATNTVYLQMNSLKPEDTAVYYCAALGYATGSWRYYYWGQGTQVTVSS	low polyreactivity
QVQLVESGGGLVQAGGSLRLSCAASGITFEYFDRGWYRQAPGKERELVAAISWSTDITYADSVKGRFTISRDNAKNTVYLQMNSLKPEDTAVYYCAASTYEYTSYDYWGQGTQVTVSS	low polyreactivity
QVQLVESGGGLVQAGGSLRLSCAASGITFEYYTMGWYRQAPGKERELVAAITQGGGTTYYADSVKGRFTISRDNAKNTVYLQMNSLKPEDTAVYYCAAYVGYLLLYYPTYYYWGQGTQVTVSS	low polyreactivity
QVQLVESGGGLVQAGGSLRLSCAASGITFFDYAMGWYIQAPGKERELVAAIDLSDGRTYYADSVKGRFTISRDNAKNTVYLQMNSLKPEDTAVYYCARQHEDYVYYWYYWYDYDYWGQGTQVTVSS	low polyreactivity
QVQLVESGGGLVQAGGSLRLSCAASGITFFDYAMGWYRQAPGKERELFAAIDLSDGRTYYADSVKGRFTISRDNAKNTVYLQMNSLKPEDTAVYYCNADSFLSWVYRYVYYGSGYWGQGTQVTVSS	low polyreactivity
QVQLVESGGGLVQAGGSLRLSCAASGITFFFNAMGWYRQAPGKERELVAAITSGGGSTYYADSVKGRFTISRDNAKNTVYLQMNSLKPEDTAVYYCNADFSKSYDYWGQGTQVTVSS	low polyreactivity
QVQLVESGGGLVQAGGSLRLSCAASGITFFQYAMGWSRQAPGKERELVAAISRSGSRTYYADSVKGRFTISRDNAKNTVYLQLNSLKQEDTAVYYCAAARVNDHYGYYRQMNYWGQCTQVTVSS	high polyreactivity
